Assay results from patent US7115722.
Values joined by “and” are separate entries in the source; they are usually repeats but may differ in a detail not shown here. Equal entries are not always repeated.

Legend:
[1] = molecular target: C-antigen (human); assay: flow cytometry, SK-BR-3 cells, 5 mg/L
[2] = molecular target: C-antigen (human); assay: radioligand binding to A-375 cells
[3] = molecular target: C-antigen (human); assay: radioligand binding to SKMG1 cells
[4] = molecular target: C-antigen (human); assay: radioligand binding to LS174T cells
[5] = molecular target: C-antigen (human); assay: cell-fixed ELISA, CEM cells, 2.5 µg/mL
[6] = molecular target: C-antigen (human); assay: cell-fixed ELISA, PC-3 cells, 2.5 µg/mL
[7] = molecular target: C-antigen (human); assay: cell-fixed ELISA, T-24 cells, 2.5 µg/mL
[8] = molecular target: C-antigen (human); assay: cell-fixed ELISA, T47D cells, 2.5 µg/mL
[9] = molecular target: C-antigen (human); assay: cell-fixed ELISA, A-375 cells, 2.5 µg/mL
[10] = molecular target: C-antigen (human); assay: cell-fixed ELISA, A-427 cells, 2.5 µg/mL
[11] = molecular target: C-antigen (human); assay: cell-fixed ELISA, BT-20 cells, 2.5 µg/mL
[12] = molecular target: C-antigen (human); assay: cell-fixed ELISA, CA-46 cells, 2.5 µg/mL
[13] = molecular target: C-antigen (human); assay: cell-fixed ELISA, DAUDI cells, 2.5 µg/mL
[14] = molecular target: C-antigen (human); assay: cell-fixed ELISA, HEP-2 cells, 2.5 µg/mL
[15] = molecular target: C-antigen (human); assay: cell-fixed ELISA, HT-29 cells, 2.5 µg/mL
[16] = molecular target: C-antigen (human); assay: cell-fixed ELISA, K-562 cells, 2.5 µg/mL
[17] = molecular target: C-antigen (human); assay: cell-fixed ELISA, LS17T cells, 2.5 µg/mL
[18] = molecular target: C-antigen (human); assay: cell-fixed ELISA, RAMOS cells, 2.5 µg/mL
[19] = molecular target: C-antigen (human); assay: flow cytometry, live H9 cells, 100 µg/mL
[20] = molecular target: C-antigen (human); assay: flow cytometry, live H9 cells, 100 µg/mL; remark: listed apart in the source
[21] = molecular target: C-antigen (human); assay: flow cytometry, live H9 cells, 200 µg/mL
[22] = molecular target: C-antigen (human); assay: cell-fixed ELISA, BT-474 cells, 2.5 µg/mL
[23] = molecular target: C-antigen (human); assay: cell-fixed ELISA, D-54MG cells, 2.5 µg/mL
[24] = molecular target: C-antigen (human); assay: cell-fixed ELISA, DU-145 cells, 2.5 µg/mL
[25] = molecular target: C-antigen (human); assay: cell-fixed ELISA, MB-468 cells, 2.5 µg/mL
[26] = molecular target: C-antigen (human); assay: cell-fixed ELISA, NCI-69 cells, 2.5 µg/mL
[27] = molecular target: C-antigen (human); assay: cell-fixed ELISA, SAOS-2 cells, 2.5 µg/mL
[28] = molecular target: C-antigen (human); assay: cell-fixed ELISA, SKMG-1 cells, 2.5 µg/mL
[29] = molecular target: C-antigen (human); assay: cell-fixed ELISA, U-2 OS cells, 2.5 µg/mL
[30] = molecular target: C-antigen (human); assay: cell-fixed ELISA, NCI-H82 cells, 2.5 µg/mL
[31] = molecular target: C-antigen (human); assay: cell-fixed ELISA, SK-BR-3 cells, 2.5 µg/mL
[32] = molecular target: C-antigen (human); assay: cell-fixed ELISA, SK-Co-1 cells, 2.5 µg/mL
[33] = molecular target: C-antigen (human); assay: cell-fixed ELISA, SK-LU-1 cells, 2.5 µg/mL
[34] = molecular target: C-antigen (human); assay: cell-fixed ELISA, SK-N-MC cells, 2.5 µg/mL
[35] = molecular target: C-antigen (human); assay: cell-fixed ELISA, SK-OV-3 cells, 2.5 µg/mL
[36] = molecular target: C-antigen (human); assay: cell-fixed ELISA, SW-9000 cells, 2.5 µg/mL
[37] = molecular target: C-antigen (human); assay: cell-fixed ELISA, U-118MG cells, 2.5 µg/mL
[38] = molecular target: C-antigen (human); assay: cell-fixed ELISA, SK-MEL-5 cells, 2.5 µg/mL
[39] = molecular target: C-antigen (human); assay: flow cytometry, live A-375 cells, 200 µg/mL
[40] = molecular target: C-antigen (human); assay: flow cytometry, live HT-29 cells, 200 µg/mL
[41] = molecular target: C-antigen (human); assay: flow cytometry, live CA-46 cells, 100 µg/mL
[42] = molecular target: C-antigen (human); assay: flow cytometry, live CA-46 cells, 200 µg/mL
[43] = molecular target: C-antigen (human); assay: flow cytometry, live RAMOS cells, 100 µg/mL
[44] = molecular target: C-antigen (human); assay: flow cytometry, live RAMOS cells, 200 µg/mL
[45] = molecular target: C-antigen (human); assay: cell-fixed ELISA, SK-MEL-28 cells, 2.5 µg/mL
[46] = molecular target: C-antigen (human); assay: flow cytometry, live MB-468 cells, 200 µg/mL
[47] = molecular target: C-antigen (human); assay: flow cytometry, live SKMG-1 cells, 100 µg/mL
[48] = molecular target: C-antigen (human); assay: flow cytometry, live LS-174T cells, 200 µg/mL
[49] = molecular target: C-antigen (human); assay: flow cytometry, live SK-BR-3 cells, 200 µg/mL
[50] = molecular target: C-antigen (human); assay: flow cytometry, live CCRF-CEM cells, 100 µg/mL
[51] = molecular target: C-antigen (human); assay: flow cytometry, live CCRF-CEM cells, 200 µg/mL
[52] = molecular target: C-antigen (human); assay: cell-fixed ELISA, tumour cell lines, against BGA scFv
[53] = molecular target: C-antigen (human); assay: flow cytometry, live SKMG-1 cells, 100 µg/mL (second row)
[54] = molecular target: C-antigen (human); assay: flow cytometry, live WI-38 human diploid lung cells, 100 µg/mL
[55] = molecular target: C-antigen (human); assay: flow cytometry, SK-BR-3 cells, 2 mg/L IgG1
[56] = molecular target: C-antigen (human); assay: flow cytometry, SK-BR-3 cells, 3.3 mg/L IgG1
[57] = molecular target: C-antigen (human); assay: flow cytometry, SK-BR-3 cells, 3.9 mg/L IgG1
[58] = molecular target: C-antigen (human); assay: flow cytometry, SK-BR-3 cells, 4.0 mg/L IgG1

Control IgG1 (antibody) gave a Mean Fluorescence (MF) [1] of 169.

B1: H11-scFv (scFv)
scFv: DIVLTQSPGTLSLSPGERATLSCRASQSVSSSYLAWYQQKPGQAPRLLIYGASTRATGMPDRFSGSGSGTDFTLTISRLEPEDFAVYYCQQYGSSPQTPQITFGGGTKVEIKRTVAAPSVSGGGGSGGGGSGGGGSQVQLVESGGGVVQPGRSLRLSCAASGFPFRSFAMHWVRQALGKGLEWVAVISYDGSTKYYADSVKGRFTISRDTSKNTVYLKMNSLRTEDTAVYYCARDQSLLGDYDHYYGLDVWGKGTTVTVSSGSEQKLISEEDLNHHHHH
In the case of B1, the Ka [2] is reported as 3.6e+08 M⁻¹, the binding sites/cell (binding sites/cell) [2] is reported as 24000 and the Ka [3] is reported as 1.4e+09 M⁻¹. For the same molecule, the binding sites/cell (binding sites/cell) [3] was 5000, the Ka [4] was 3e+08 M⁻¹ and the O.D. at 450 nm [5] was 1.4 O.D. It also gave an O.D. at 450 nm [6] of 0.36 O.D, an O.D. at 450 nm [7] of 0.97 O.D and an O.D. at 450 nm [8] of 0.64 O.D. It also gave an O.D. at 450 nm [9] of 0.97 O.D, an O.D. at 450 nm [10] of 0.4 O.D and an O.D. at 450 nm [11] of 0.54 O.D. It also gave an O.D. at 450 nm [12] of 1.2 O.D, an O.D. at 450 nm [13] of 1.38 O.D and an O.D. at 450 nm [14] of 0.08 O.D. It also gave an O.D. at 450 nm [15] of 0.53 O.D, an O.D. at 450 nm [16] of 0.65 O.D and an O.D. at 450 nm [17] of 0.57 O.D. It also gave an O.D. at 450 nm [18] of 1.3 O.D, a % Positive Cells [19] of 13% and a Mean Fluorescence [19] of 145. The % FLUORESCENCE […] [20] was 15%, the % Positive Cells [20] was 9% and the Mean Fluorescence [20] was 171. For the same molecule, the % FLUORESCENCE […] [21] was 20%, the % Positive Cells [21] was 13% and the Mean Fluorescence [21] was 186. For the same molecule, the O.D. at 450 nm [22] was 0.6 O.D, the O.D. at 450 nm [23] was 0.5 O.D and the O.D. at 450 nm [24] was 0.42 O.D. For the same molecule, the O.D. at 450 nm [25] was 0.65 O.D, the O.D. at 450 nm [26] was 0.44 O.D and the O.D. at 450 nm [27] was 0.88 O.D. It also gave an O.D. at 450 nm [28] of 0.56 O.D, an O.D. at 450 nm [29] of 0.93 O.D and an O.D. at 450 nm [30] of 0.44 O.D. For the same molecule, the O.D. at 450 nm [31] was 0.58 O.D, the O.D. at 450 nm [32] was 0.56 O.D and the O.D. at 450 nm [33] was 0.45 O.D. For the same molecule, the O.D. at 450 nm [34] was 0.5 O.D, the O.D. at 450 nm [35] was 0.77 O.D and the O.D. at 450 nm [36] was 0.41 O.D. For the same molecule, the O.D. at 450 nm [37] was 0.47 O.D, the O.D. at 450 nm [38] was 0.61 O.D and the % Positive Cells [39] was 80% and 76%. The Mean Fluorescence [39] was 207 and 235, the % Positive Cells [40] was 18% and the Mean Fluorescence [40] was 179. It also gave a % FLUORESCENCE […] [41] of 66%, a % Positive Cells [41] of 58% and a Mean Fluorescence [41] of 221. The % FLUORESCENCE […] [42] was 108%, the % Positive Cells [42] was 76% and the Mean Fluorescence [42] was 262. For the same molecule, the % FLUORESCENCE […] [43] was 87%, the % Positive Cells [43] was 67% and the Mean Fluorescence [43] was 316. The % FLUORESCENCE […] [44] was 143%, the % Positive Cells [44] was 95% and the Mean Fluorescence [44] was 423. It also gave an O.D. at 450 nm [45] of 0.71 O.D, a % Positive Cells [46] of 11% and a Mean Fluorescence [46] of 156. It also gave a % Positive Cells [47] of 31%, a Mean Fluorescence [47] of 206 and a % Positive Cells [48] of 37%. For the same molecule, the Mean Fluorescence [48] was 233, the % Positive Cells [49] was 36% and the Mean Fluorescence [49] was 233. The % FLUORESCENCE […] [50] was 52%, the % Positive Cells [50] was 38% and the Mean Fluorescence [50] was 242. The % FLUORESCENCE […] [51] was 35%, the % Positive Cells [51] was 34% and the Mean Fluorescence [51] was 231. The affinity relative to control scFv [52] was 8 to 50 fold, the % Positive Cells [53] was 27% and the Mean Fluorescence [53] was 224. For the same molecule, the % Positive Cells [54] was 15% and the Mean Fluorescence [54] was 255.

B2: recombinantly produced H11 IgG1 (antibody)
VH: QAIVTLNTQAMHPTRWELSHMVDLQAAALVISSFITEHRGLTMEFGLSWVFLVALLRGIQCQVQLVESGGGVVQPGRSLRLSCAASGFPFRSFAMHWVRQALGKGLEWVAVISYDGSTKYYADSVKGRFTISRDTSKNTVYLKMNRLRTEDTAVFYLCERQSLLGDYDHYYGLDAWGKG
VL: LEMDMEFQAQLLFLLLLWLPDITGDIVLTQSPGTLSLSPGERATLSCRASQSVSSSYLAWYQQKPGQAPRLLIYGASTRATGMPDRFSGSGSGTDFTLTISRLEPEDFAVYYCQQYGSSPQTPQITFGGGTKVEIKRTVAAPSVFIFPPS
For B2, the % Increase of MF above IgG1 control [55] was 2% and 9%, the Mean Fluorescence (MF) [55] was 172 and 184 and the % Increase of MF above IgG1 control [56] was 14% and 10%. For the same molecule, the Mean Fluorescence (MF) [56] was 192 and 186, the % Increase of MF above IgG1 control [57] was 18% and the Mean Fluorescence (MF) [57] was 200. It also gave a % Increase of MF above IgG1 control [58] of 33% and a Mean Fluorescence (MF) [58] of 224.
